Substitutions are numbered along the chain they refer to.

The target of series [1] is T1, Goodpasture antigen-binding protein (GPBP) (Homo sapiens, UniProt Q9Y5P4).
T1 construct: gene CERT1; FLAG-tagged recombinant GPBP multimer (77-kDa GPBP isoform); also native extracellular A427 GPBP
T1 sequence (Q9Y5P4 1-624): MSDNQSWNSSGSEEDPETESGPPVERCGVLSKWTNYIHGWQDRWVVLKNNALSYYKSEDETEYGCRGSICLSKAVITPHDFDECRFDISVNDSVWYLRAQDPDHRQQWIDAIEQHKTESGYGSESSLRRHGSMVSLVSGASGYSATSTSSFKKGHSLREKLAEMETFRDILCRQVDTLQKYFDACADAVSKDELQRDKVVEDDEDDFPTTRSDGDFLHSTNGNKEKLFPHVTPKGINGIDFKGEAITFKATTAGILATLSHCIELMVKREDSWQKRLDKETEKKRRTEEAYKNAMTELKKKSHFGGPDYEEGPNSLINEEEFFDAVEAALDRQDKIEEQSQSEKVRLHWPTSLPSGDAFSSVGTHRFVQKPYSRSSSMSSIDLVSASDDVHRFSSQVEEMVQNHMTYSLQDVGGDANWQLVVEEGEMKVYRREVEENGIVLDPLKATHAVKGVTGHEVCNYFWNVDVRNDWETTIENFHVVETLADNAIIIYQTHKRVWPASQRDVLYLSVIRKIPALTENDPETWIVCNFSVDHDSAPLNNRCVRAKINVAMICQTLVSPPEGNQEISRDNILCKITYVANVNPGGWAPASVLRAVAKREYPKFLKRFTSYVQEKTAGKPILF
The experiment in a line: […] in vitro autophosphorylation of purified multimeric GPBP at […] T12; FPLC-SEC shift of GPBP oligomers (BSA control unaffected). Format: biochemical.

The target in the next series is T2, GPBP (FLAG-GPBP) (Homo sapiens, UniProt Q9Y5P4).
T2 construct: gene CERT1; FLAG-GPBP
T2 sequence (Q9Y5P4 1-624): T1 sequence (Q9Y5P4 1-624)
The experiment in a line: […] in vitro autophosphorylation of FLAG-GPBP (Figure 9G). Format: biochemical.

Series [2] concerns the molecule itself. The experiment in a line: SEC; FPLC-SEC on Superdex 200 of FLAG-GPBP purified from Sf9 culture media; calibrators thyroglobulin, aldolase, human serum albumin.
Series [3] concerns the molecule itself. The experiment in a line: SEC; HPLC-SEC on TSKgel G4000SW of purified yeast recombinant FLAG-tagged polypeptides.
Series [4] concerns the molecule itself. Kind of series: SEC; GPBP affinity-purified from culture media of A427 and A549 cells (scFvN26 column, native elution with peptide PS132), FPLC-SEC on Superdex 200, fractions read by indirect ELISA with anti-GPBP mAb. On the technique in general: In gel filtration, larger molecules generally elute earlier.

As for `COc1ccc(-c2ccc(-c3cccc(C)c3)c(C)c2)c(CCC(=O)O)c1` [T12, 3-[4″-methoxy-3,2′-dimethyl-(1,1′;4′,1″)terphenyl-2″-yl]propionic acid], in series [1], the “32P in vitro autophosphorylation of purified multimeric GPBP at 50 μM T12; FPLC-” value is listed as “T12 reduced autophosphorylation of recombinant multimer but did not affect the recombinant GPBP trimer autophosphorylation activity”.

Take `COc1cccc2c1C(=O)c1c(O)c3c(c(O)c1C2=O)C[C@@](O)(C(=O)CO)C[C@@H]3O[C@H]1C[C@H](N)[C@H](O)[C@H](C)O1` [doxorubicin]: at GPBP (FLAG-GPBP), the “32P in vitro autophosphorylation of FLAG-GPBP (Figure 9G)” value is “it was shown the existence of GPBP species sensitive to doxorubicin (Figure 9G)”.

B1: FLAG-tagged GPBP (Goodpasture antigen-binding protein), extracellular pool from Sf9 cells (natural protein, human, UniProt Q9Y5P4 1-624, looked up)
chain: T1 sequence (Q9Y5P4 1-624)
notes: Constructs may be described in the extended methods (Supplementary Materials); also called FLAG-GPBP; extracellular GPBP
B1: the binding result in series [2] is given as “binds”.

B2: yeast recombinant FLAG-tagged GPBP (natural protein, human, UniProt Q9Y5P4 1-624, looked up)
chain: T1 sequence (Q9Y5P4 1-624)
notes: also called FLAG-GPBP
In the case of B2, in series [3], the binding result is reported as “binds”.

B3: native extracellular GPBP isolated from the culture media of human NSCLC cells (A427, A549) (natural protein, human (endogenous in A427 and A549), UniProt Q9Y5P4 1-624, looked up)
chain: T1 sequence (Q9Y5P4 1-624)
notes: also called native extracellular A427 GPBP; mesenchymal GPBP
Consider B3, for which the binding result in series [4] was “binds”.

B4: yeast recombinant FLAG-tagged GPBP-Ala264 (natural protein, human, UniProt Q9Y5P4 1-624, looked up)
chain: T1 sequence (Q9Y5P4 1-624) with E264A
notes: Mainly trimeric by SEC, with traces of higher and lower MW materials; source: yeast, purified
On to B4, for which the stoichiometry N – broadly, the number of molecules, sites or subunits per partner or assembly – in series [3] worked out at 3.

For the origin of these results see PMC5834258, “Selective targeting of collagen IV in the cancer cell microenvironment reduces tumor burden” (Oncotarget, 2018).
